Assays:
Conditions in all cases: protein: recombinant; tags: 10xHis-MBP N-terminal; blunt DNA 54 bp; R-loop
SpuFz1 [1] = biological target: T1, SpuFz1 (Spizellomyces punctatus ATCC 48900, UniProt A0A0L0H5U9 1-622); experiment: cryo-EM structure; State I, 8-bp heteroduplex; RNP purification buffer 20 mM HEPES pH 7.5, 150 mM NaCl, 2 mM MgCl2, 4.5 mM TCEP, 4 C; ternary complex assembly conditions not in the material
SpuFz1 [2] = biological target: T1, SpuFz1; experiment: cryo-EM structure; State VI, 15-bp heteroduplex, weak lid density; RNP purification buffer 20 mM HEPES pH 7.5, 150 mM NaCl, 2 mM MgCl2, 4.5 mM TCEP, 4 C; ternary complex assembly conditions not in the material
SpuFz1 [3] = biological target: T1, SpuFz1; experiment: cryo-EM structure; State IV, dsDNA unwound on RuvC; RNP purification buffer 20 mM HEPES pH 7.5, 150 mM NaCl, 2 mM MgCl2, 4.5 mM TCEP, 4 C; ternary complex assembly conditions not in the material
SpuFz1 [4] = biological target: T1, SpuFz1; experiment: cryo-EM structure; State V, 15-bp heteroduplex, lid down; RNP purification buffer 20 mM HEPES pH 7.5, 150 mM NaCl, 2 mM MgCl2, 4.5 mM TCEP, 4 C; ternary complex assembly conditions not in the material

T1 sequence (A0A0L0H5U9 entry or part of it): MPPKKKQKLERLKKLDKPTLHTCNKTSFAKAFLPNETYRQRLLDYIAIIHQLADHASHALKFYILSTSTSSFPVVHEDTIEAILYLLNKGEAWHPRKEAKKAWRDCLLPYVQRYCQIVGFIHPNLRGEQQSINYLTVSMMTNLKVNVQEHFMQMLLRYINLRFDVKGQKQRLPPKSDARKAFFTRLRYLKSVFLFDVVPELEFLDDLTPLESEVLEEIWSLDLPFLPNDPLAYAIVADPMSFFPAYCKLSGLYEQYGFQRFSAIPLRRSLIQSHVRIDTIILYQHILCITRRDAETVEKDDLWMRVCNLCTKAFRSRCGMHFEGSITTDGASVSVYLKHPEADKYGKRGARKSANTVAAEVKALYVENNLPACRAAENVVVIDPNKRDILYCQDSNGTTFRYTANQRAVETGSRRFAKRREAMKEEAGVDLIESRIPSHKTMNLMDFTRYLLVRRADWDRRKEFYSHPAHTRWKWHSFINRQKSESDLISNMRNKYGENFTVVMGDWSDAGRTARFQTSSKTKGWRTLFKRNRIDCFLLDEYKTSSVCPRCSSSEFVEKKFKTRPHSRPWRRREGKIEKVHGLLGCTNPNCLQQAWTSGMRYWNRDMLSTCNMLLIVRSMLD

B1: SpuFz1 omegaRNA + ds2 (mixed)
RNA: GUUUUCCGAGCCGGUUGUCGCGCGGUUCAAUCCCUGGUGCGGGUGCUAGUGCCAAUACCCACCGGCUCCGCACUAUCUAUAGGUUAUGA
DNA 1: ATTCGAGCTCGGTACCCGGGCATATCTATAGGTTATGAAATCAAATTACAAATA
DNA 2: TATTTGTAATTTGATTTCATAACCTATAGATATGCCCGGGTACCGAGCTCGAAT
modifications: phosphorothioates, TS partially modified, NTS unmodified
binding result (SpuFz1 [1]): binds

B2: SpuFz1 omegaRNA + ds6 (mixed)
RNA: B1 RNA
DNA 1: B1 DNA 1
DNA 2: B1 DNA 2
modifications: phosphorothioates, NTS fully modified, TS unmodified
binding result (SpuFz1 [2]): binds

B3: SpuFz1 omegaRNA + ds3 (mixed)
RNA: B1 RNA
DNA 1: B1 DNA 1
DNA 2: B1 DNA 2
modifications: phosphorothioates, NTS partially modified, TS unmodified
binding result (SpuFz1 [3]): binds

B4: SpuFz1 omegaRNA + ds5 (mixed)
RNA: B1 RNA
DNA 1: B1 DNA 1
DNA 2: B1 DNA 2
modifications: phosphorothioates, TS fully modified, NTS unmodified
binding result (SpuFz1 [4]): binds
